The values that follow come from paper PMC11587861, “A high-throughput search for intracellular factors that affect RNA folding identifies E. coli proteins PepA and YagL as RNA chaperones that promote RNA remodelling”.

One series addresses T1, PepA-H6 (Escherichia coli, UniProt P68767 1-503).
T1 sequence: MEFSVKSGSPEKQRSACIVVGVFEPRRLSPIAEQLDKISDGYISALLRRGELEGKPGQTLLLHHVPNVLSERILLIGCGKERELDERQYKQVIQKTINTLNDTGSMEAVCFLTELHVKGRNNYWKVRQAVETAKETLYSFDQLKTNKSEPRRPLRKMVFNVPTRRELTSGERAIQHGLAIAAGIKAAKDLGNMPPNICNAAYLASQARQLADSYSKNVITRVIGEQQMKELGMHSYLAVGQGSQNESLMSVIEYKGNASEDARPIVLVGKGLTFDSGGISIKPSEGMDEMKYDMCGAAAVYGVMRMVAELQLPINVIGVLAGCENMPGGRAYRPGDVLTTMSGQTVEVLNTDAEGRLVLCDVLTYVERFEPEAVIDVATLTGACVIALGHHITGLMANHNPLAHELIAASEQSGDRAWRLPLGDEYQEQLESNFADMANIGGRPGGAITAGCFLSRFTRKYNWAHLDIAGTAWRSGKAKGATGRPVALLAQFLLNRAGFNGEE
The series is described as follows: filter binding; 75 mM Tris-HCl pH 7.5, 0.4 mM spermidine, 0.1 mM MgCl2, 50 mM NaCl, 0.5 mM EDTA, 0.25 mM DTT, 6% glycerol; 10 min at room temperature; 50 fmol RNA in 60 µL, protein 0-10 µM. The settings on record: protein: recombinant, tags: C-terminal His6, chain copies: 6, label: 5'-32P (printed as [31]P).

The next series concerns the target T2, YagL-H6 (Escherichia coli, UniProt P77607 1-232).
T2 sequence: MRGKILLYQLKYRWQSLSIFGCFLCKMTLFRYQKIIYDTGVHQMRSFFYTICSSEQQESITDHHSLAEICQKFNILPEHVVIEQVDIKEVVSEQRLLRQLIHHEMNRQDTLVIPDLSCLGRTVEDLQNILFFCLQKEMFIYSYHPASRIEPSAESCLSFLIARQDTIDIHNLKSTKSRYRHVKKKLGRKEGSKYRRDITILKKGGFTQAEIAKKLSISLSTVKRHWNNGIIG
The description is as above. The settings on record: protein: recombinant, label: 5'-32P (printed as [31]P).

Broadly, the Kd is the constant that tells how readily two partners part at equilibrium.

Take AUGUGGAAAAUCUCUAGCAGU (ssRNA) [21 R+]: the Kd worked out at 2000 ± 600 nM in the series with PepA-H6 (single strand) and 4500 ± 300 nM with YagL-H6 (single strand).
As to CUGCUAGAGAUUUUCCACAU (ssRNA) [21 R-], the Kd with PepA-H6 (single strand) amounted to 600 ± 300 nM; in the series with YagL-H6 (single strand) it was 5000 ± 1200 nM.
GCUCUAGAGCAUUAUGUUCAGAUAAGG (structured_RNA) [hairpin]: the Kd with PepA-H6 (hairpin) was determined as 600 ± 400 nM; with YagL-H6 (hairpin) it was 2400 ± 300 nM.
